The data set concerns the molecule itself. Briefly: crystal structure; Rv3722c (~40 mg/mL) co-crystallised with 5 mM L-glutamic acid or 10 mM L-kynurenine, sitting drop vapor diffusion at 17 °C.

B1: Rv3722c (aspartate aminotransferase of Mycobacterium tuberculosis) (enzyme)
chain: SFDSLSPQELAALHARHQQDYAALQGMKLALDLTRGKPSAEQLDLSNQLLSLPGDDYRDPEGTDTRNYGGQHGLPGLRAIFAELLGIAVPNLIAGNNSSLELMHDIVAFSMLYGGVDSPRPWIQEQDGIKFLCPVPGYDRHFAITETMGIEMIPIPMLQDGPDVDLIEELVAVDPAIKGMWTVPVFGNPSGVTYSWETVRRLVQMRTAAPDFRLFWDNAYAVHTLTLDFPRQVDVLGLAAKAGNPNRPYVFASTSKITFAGGGVSFFGGSLGNIAWYLQYAGKKSIGPDKVNQLRHLRFFGDADGVRLHMLRHQQILAPKFALVAEVLDQRLSESKIASWTEPKGGYFISLDVLPGTARRTVALAKDVGIAVTEAGASFPYRKDPDDKNIRIAPSFPSVPDLRNAVDGLATCALLAATETLLNQGLASSAPNVR
notes: also called AspAT
With B1, the binding result is on record as “binds”.

For the origin of these results see article PMC7181641, “Aspartate aminotransferase Rv3722c governs aspartate-dependent nitrogen metabolism in Mycobacterium tuberculosis” (Nature Communications, 2020).
